B1: TRIM55 (parent)
chain: ICPICLEMFTKPVVILPCQHNLCR
B2: TRIM55 (parent)
chain: YKSFSKEQQTMDNLEKQLICPICL

Variants of: B1
Experiment: protein stability index of a GFP-peptide fusion (GPS, HEK-293T) (PSI 1-6); higher = more stable
Details: c terminus: a fixed tail appended
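Note: lentivirally expressed fusions sorted by FACS into six bins by GFP to DsRed ratio, PSI derived from sequencing read proportions per bin multiplied by bin number.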

Protein stability index, by site and new letter:
N21: Q 2.17 | D 2.23 | L 2.01 | A 2.73 | V 2.35 | F 2.53 | K 1.74 | M 2.29 | R 2.31
P17: G 1.83 | M 1.7 | A 1.97 | S 2.91 | R 2.17 | E 2.62 | F 2.53
C23: R 2.47 | W 2.05 | Q 2.21 | K 2.03 | P 2.24 | I 1.82 | S 1.93 | A 1.72 | H 2.92 | F 1.73 | G 2.01
P12: V 2.29 | H 2.04 | D 2.61 | E 2.55 | G 2.25 | Q 2.43
H20: P 2.23 | K 1.87 | R 1.45 | F 2.77 | E 1.68 | W 1.27 | L 1.91
I15: S 2.74 | C 2.71 | G 2.53 | H 2.38 | M 2 | W 1.85 | V 2.14 | D 2.81 | K 2.09
F9: D 3.1 | V 2.86 | M 2.51 | E 3.15 | L 2.47 | P 2.85 | A 2.64 | Q 2.49 | H 2.82 | C 2.81
L16: P 3.02 | V 2.68 | E 2.35 | K 2.58 | W 2.38 | S 2.4 | G 3.03 | Q 2.62 | Y 2.39 | F 2.12 | N 2.67 | R 2.24
T10: F 1.74 | N 2.73 | R 2.38 | S 2.74 | W 2.27 | I 1.83 | Q 3.09 | Y 2.06 | A 2.23
V13: R 2.19 | G 2.84 | H 2.63 | C 2.21 | K 2.15 | Y 1.99 | P 2.23 | M 2.33 | N 2.92 | E 2.61 | I 2.11 | T 2.62
R24: W 2.35 | A 1.92 | M 2.15 | L 2.11 | I 2.24 | E 2.11 | K 2.32 | G 2.41 | N 2.95 | H 2.4 | P 2.32 | C 2.27 | V 1.83
V14: E 3.02 | F 2.49 | R 2.47 | D 3.31 | H 2.82 | Q 2.59 | M 2.98 | G 2.54
C5: Q 1.18 | V 2.14 | A 1.93 | S 2.38 | L 1.72 | R 1.22 | P 2.07 | T 1.73 | K 3.33 | E 2.28
Q19: S 2.23 | W 1.61 | V 2.18 | C 1.98 | Y 2.31 | T 1.98 | A 2.05 | R 2.25 | G 2.85 | H 2.09
P3: I 3.07 | Y 1.27 | C 1.63 | S 1.75 | T 2.45 | W 1.9 | E 2.21 | N 2.13 | G 1.26
C18: D 2.53 | P 2.11 | S 2.23 | G 2.26 | E 2.48 | T 1.98 | I 2.02 | Y 1.79
L6: F 2.48 | T 2.51 | Q 1.99 | V 1.95 | H 2.38 | P 2.69 | S 2.52 | Y 2.34 | E 3.49
L22: P 2.29 | E 2.45 | I 2.31 | F 1.99 | R 2.51 | V 2.55 | T 2.17 | H 2.48 | Y 2.08 | M 3.14 | G 2.44
E7: Y 2.07 | H 2.29 | P 2.13 | V 1.42 | T 1.85 | R 2.24 | S 2.19 | F 2.24
M8: Y 2.82 | Q 3.31 | S 2.59 | V 2.17 | I 2.63 | K 2.98 | H 2.76 | L 1.66 | G 2.11
C2: W 1.22 | K 2.15 | P 1.93 | R 2.03 | H 1.96 | Y 2.49 | M 1.67
I4: A 2.07 | N 2.25 | E 2.33 | F 2.67 | R 2.87 | P 1.94 | W 2.34 | M 1.86 | D 2.49 | C 1.83 | G 2.03 | T 2.31 | K 2.74 | S 2.72
I1: P 2.19 | A 2.56 | N 2.55 | S 2.72 | F 2.58 | L 2.72 | Y 1.92 | D 2.75 | M 2.44 | R 2.75 | V 2.4
K11: F 2.2 | A 3.04 | H 2.4 | G 2.56 | Q 2.6 | E 2.83 | L 1.9 | R 1.87 | T 2.26 | C 2.51 | P 2.35 | V 1.98

Variants of: B2
Experiment: as above
Details: c terminus: a fixed tail appended

Protein stability index: each site, then its substitutions
K6: M 1.57 | R 2.63 | Q 2.29
M11: V 2.68 | D 2.68 | P 2.66 | N 3.68 | R 2.77 | C 2.47
N13: A 1.57 | F 2.34 | T 2.81 | G 2.35
K2: H 1.29 | T 1.83 | D 2.36 | Q 1.59 | R 1.73 | C 1.93
K16: H 2.89 | T 2.23 | L 1.68 | M 2.15
D12: N 2.37 | C 2.17 | F 2.68 | R 1.93 | S 1.93 | M 2.26 | Y 2.57
I19: Q 2.81 | A 1.99 | P 2.29
P21: V 2.08 | Q 2.4 | T 1.77
C23: Q 3.13 | M 1.66 | I 1.93 | P 1.86 | N 3.15
E15: N 2.33 | R 2.12 | F 2.1
E7: V 1.6 | P 2.27 | T 1.96 | C 1.98 | Q 1.67 | D 2.29
Q17: R 2.22 | N 1.89 | A 1.79 | F 2.59
Y1: H 3.12 | S 3.02 | Q 2.15 | M 2.5
L18: Q 2.08 | N 2.96 | Y 2.18
Q8: G 2.83 | M 1.96 | V 2.09 | W 1.66 | P 2 | D 2.07 | C 1.96
L24: E 2.13 | W 2.37 | Q 2.22
I22: N 3.48
S3: H 2.45 | W 2.18 | I 1.94
C20: L 2.29 | Y 2.03 | R 2.11 | P 2.86 | Q 2.05 | G 2.52
L14: W 2.81 | T 3.03 | C 2.51 | D 2.53 | A 3.03
T10: R 2.03 | M 1.9 | W 1.77 | L 2.18 | H 2.03 | Q 2.31
S5: A 1.89 | V 1.99 | Q 2.19 | W 1.37
F4: A 2.74 | H 2.8 | D 2.43 | E 2.49 | L 2.27
Q9: Y 2.7 | R 2.5

— the supplement of paper PMC10567573
